Measurements taken from patent publication US20260201038A1 (CELLABMED, published 2026).

What was measured:
[1] = target: T1, …; test: peptide microarray, 15-mers of human 4Ig B7-H3; panel Ig-like-V type 1
T1 sequence (peptide): EVQVPEDPVVALVGT

B7-1 = target: T2, B7-1 (UniProt P33681 35-242); test: indirect ELISA, B7-1 coated at 1 ug/mL, absorbance at 450 nm
T2 sequence (looked up): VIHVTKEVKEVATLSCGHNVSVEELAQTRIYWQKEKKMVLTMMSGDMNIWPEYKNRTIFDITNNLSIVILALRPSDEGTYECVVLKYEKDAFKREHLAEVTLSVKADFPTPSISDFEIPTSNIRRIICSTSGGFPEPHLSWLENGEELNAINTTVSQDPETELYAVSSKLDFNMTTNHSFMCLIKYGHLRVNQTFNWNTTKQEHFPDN
Protocol: [The procedure below names another target; the source lists this target under the same test.] (§1) The binding ability of 2D IgG prepared in Example 2 for recombinant B7-H3 protein was investigated by indirect ELISA. For indirect ELISA, recombinant human 4lg B7-H3, recombinant human 2lg B7-H3 and recombinant mouse B7-H3 were diluted respectively to 1 μg/mL in 50 μL of PBS and adsorbed overnight onto a 96-well immunoplate (Corning, USA) by storing at 4° C. After reaction with a buffer solution containing 3% bovine serum albumin at room temperature for 1 hour, followed by washing 3 times with a buffer solution containing 0.5% Tween 20, each well was treated with 50 μL of the antibodies diluted serially (0.0001, 0.0003, 0.001, 0.003, 0.01, 0.03, 0.1, 0.3, 1, 3 and 10 nM). For antigen-antibody binding, the mixture was reacted at room temperature for 2 hours, and then washed 3 times with a buffer solution containing 0.5% Tween 20. After treating each well with 50 μL of anti-human immunoglobulin Fc-HRP antibodies (Jackson Immunoresearch, USA) diluted to 1:3,000, reaction was conducted at room temperature for 1 hour. […] As a result of measuring absorbance at 450 nm using a spectrophotometer (Biotek, USA), it was confirmed that 2D IgG binds to B7-H3, and the binding ability was in the order of 4lg B7-H3, 2lg B7-H3 and mouse B7-H3 (FIG. 2a). […]

[2] = target: B7-H3 on human cancer cells (human) (UniProt Q5ZPR3); test: flow cytometry on U87 brain tumor cells; control (secondary antibody only) < 10%
B7-DC = target: T3, B7-DC (UniProt Q9BQ51 20-219, limits assumed); test: indirect ELISA, B7-DC coated at 1 ug/mL, absorbance at 450 nm
T3 sequence (looked up): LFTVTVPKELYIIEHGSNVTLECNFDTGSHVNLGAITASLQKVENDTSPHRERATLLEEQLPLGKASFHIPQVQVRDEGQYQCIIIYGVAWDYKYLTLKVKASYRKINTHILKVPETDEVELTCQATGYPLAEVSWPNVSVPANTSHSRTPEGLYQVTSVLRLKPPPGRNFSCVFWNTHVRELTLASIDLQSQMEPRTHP
Protocol: [The procedure below names another target; the source lists this target under the same test.] as §1

[3] = target: B7-H3 on human cancer cells (human) (UniProt Q5ZPR3); test: flow cytometry on HepG2 liver cancer cells; control (secondary antibody only) < 10%
[4] = target: B7-H3 on human cancer cells (human) (UniProt Q5ZPR3); test: flow cytometry on HepG2K liver cancer cells; control (secondary antibody only) < 20%
[5] = target: B7-H3 on human cancer cells (human) (UniProt Q5ZPR3); test: flow cytometry on SK-BR-3 breast cancer cells; control (secondary antibody only) < 5%
B7-H2 = target: T4, B7-H2 (UniProt O75144 19-256, limits assumed); test: indirect ELISA, B7-H2 coated at 1 ug/mL, absorbance at 450 nm
T4 sequence (looked up): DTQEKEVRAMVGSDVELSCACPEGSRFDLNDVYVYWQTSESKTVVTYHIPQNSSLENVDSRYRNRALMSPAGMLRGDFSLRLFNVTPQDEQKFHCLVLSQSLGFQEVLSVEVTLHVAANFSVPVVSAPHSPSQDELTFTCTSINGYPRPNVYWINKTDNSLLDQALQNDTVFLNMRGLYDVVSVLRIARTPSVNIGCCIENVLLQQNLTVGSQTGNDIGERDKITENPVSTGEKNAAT
Protocol: [The procedure below names another target; the source lists this target under the same test.] as §1

[6] = target: B7-H3 on human cancer cells (human) (UniProt Q5ZPR3); test: cell-based or functional assay
[7] = target: B7-H3 on human cancer cells (human) (UniProt Q5ZPR3); test: flow cytometry on HT29 colorectal cancer cells; control (secondary antibody only) < 15%
[8] = target: B7-H3 on human cancer cells (human) (UniProt Q5ZPR3); test: flow cytometry on MIA-PaCa2 pancreatic cancer cells; control (secondary antibody only) < 25%
[9] = target: B7-H3 on human cancer cells (human) (UniProt Q5ZPR3); test: flow cytometry on NCI-H1975 lung cancer cells; control (secondary antibody only) < 5%
[10] = target: B7-H3 on human cancer cells (human) (UniProt Q5ZPR3); test: flow cytometry on U251 brain tumor cells; control (secondary antibody only) < 10%
[11] = target: human 2Ig B7-H3 expressed on Raji cells (human) (UniProt Q5ZPR3); test: flow cytometry on Raji cells expressing 2Ig B7-H3; the vector control Raji cells show < 2%
human 2Ig B7-H3 expressed on Raji cells (human), sequence (Q5ZPR3 other isoform, or with tags, fused parts or gaps, form in doubt): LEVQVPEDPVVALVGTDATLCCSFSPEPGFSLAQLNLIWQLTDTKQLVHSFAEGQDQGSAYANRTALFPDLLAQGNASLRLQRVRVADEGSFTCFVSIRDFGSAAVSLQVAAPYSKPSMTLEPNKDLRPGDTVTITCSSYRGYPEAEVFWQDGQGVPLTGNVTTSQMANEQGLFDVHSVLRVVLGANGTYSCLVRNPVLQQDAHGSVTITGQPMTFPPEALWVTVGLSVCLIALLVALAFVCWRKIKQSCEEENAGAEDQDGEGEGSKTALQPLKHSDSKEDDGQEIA

B1: G2D IgG (antibody, V domains shown)
VH: QVQLVESGGGLVQPGGSLRLSCSASGFDFSSYPMVWVRQAPGKGLEYVSSINSGGSWTGYGAAVKGRATISRDNSKNTLYLQMNSLRAEDTATYYCARAYGAATIDAWGQGTTVTVSS
VL: SYELTQPPSVSVSPGQTARITCSGGSIGYGWYQQKAPGQAPVTVIYYNDRRPSGIPERFSGSKSGTTNTLTISGVQAEDEADYYCGSADSSSTYTGIFGGGTKLTVL
notes: The back-substitutions (L46T, S66K, V71N in VL); also called humanized 2D; G2D antibody
**Q.** For B1, which fluorescence intensity of the peptide spot [1] is on record?
**A.** Its fluorescence intensity of the peptide spot is 16.

**Q.** Does B1 bind (B7-1)?
**A.** Result: no binding (tested: 10 nM)

**Q.** What about the % of cells in the positive gate [2] of the same binder?
**A.** Its % of cells in the positive gate is greater than 95%.

**Q.** Does B1 bind (B7-DC)?
**A.** Result: no binding (tested: 10 nM)

**Q.** And the % of cells in the positive gate [3]?
**A.** The % of cells in the positive gate was greater than 95%.

**Q.** And the % of cells in the positive gate [4]?
**A.** Its % of cells in the positive gate is greater than 95%.

**Q.** And the % of cells in the positive gate [5]?
**A.** The % of cells in the positive gate was greater than 35%.

**Q.** Does B1 bind (B7-H2)?
**A.** Result: no binding (tested: 10 nM)

**Q.** And the T cell-mediated A549 cell-killing effect (GFP fluorescence of A549 cells after 48 h co-culture with activated PBMCs; negative control group = 100) [6]?
**A.** The T cell-mediated A549 cell-killing effect (GFP fluorescence of A549 cells after 48 h co-culture with activated PBMCs; negative control group = 100) was 69.3.

**Q.** And the T cell-mediated cancer cell-killing effect as compared to the negative control group [6]?
**A.** Its T cell-mediated cancer cell-killing effect as compared to the negative control group is 30%.

**Q.** And the % of cells in the positive gate [7]?
**A.** The % of cells in the positive gate was greater than 95%.

**Q.** And the % of cells in the positive gate [8]?
**A.** Its % of cells in the positive gate is greater than 95%.

**Q.** What about the % of cells in the positive gate [9] of the same binder?
**A.** Its % of cells in the positive gate is greater than 80%.

**Q.** And the % of cells in the positive gate [10]?
**A.** Its % of cells in the positive gate is greater than 95%.

**Q.** What about the % of cells in the positive gate (P3) [11] of the same binder?
**A.** Its % of cells in the positive gate (P3) is greater than 40%.
